Assay results published in US20200347146A1 (published 2020).
One block for each binder: values may come before it.

Tests used:
[1] = target: T1, CD73 on the surface of A375 cells (UniProt P21589 27-549); experiment: flow cytometry cell binding
T1 chain: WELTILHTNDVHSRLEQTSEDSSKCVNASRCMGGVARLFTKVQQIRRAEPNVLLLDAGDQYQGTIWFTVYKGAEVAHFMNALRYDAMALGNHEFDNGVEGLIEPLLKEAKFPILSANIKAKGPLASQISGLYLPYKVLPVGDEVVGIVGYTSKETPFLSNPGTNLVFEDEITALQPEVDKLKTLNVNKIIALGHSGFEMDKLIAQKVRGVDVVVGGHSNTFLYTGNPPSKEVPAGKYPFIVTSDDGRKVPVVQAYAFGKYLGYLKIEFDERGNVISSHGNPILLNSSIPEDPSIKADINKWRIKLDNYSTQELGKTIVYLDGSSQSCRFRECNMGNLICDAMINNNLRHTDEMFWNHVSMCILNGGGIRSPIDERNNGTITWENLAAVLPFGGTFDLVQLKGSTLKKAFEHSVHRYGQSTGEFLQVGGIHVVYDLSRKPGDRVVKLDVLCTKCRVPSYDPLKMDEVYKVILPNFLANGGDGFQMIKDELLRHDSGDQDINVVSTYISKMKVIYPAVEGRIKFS

[2] = target: T2, human CD73 protein (soluble) (human, UniProt P21589 27-549); experiment: ELISA
T2 chain: T1 chain

[3] = target: human PD-L1 protein (soluble) (human, UniProt Q9NZQ7 19-238); experiment: ELISA
[4] = target: human PD-L1 on PD-L1 positive Raji cells (human, UniProt Q9NZQ7 19-290); experiment: flow cytometry cell binding
Chain of human PD-L1 on PD-L1 positive Raji cells (Q9NZQ7 19-290): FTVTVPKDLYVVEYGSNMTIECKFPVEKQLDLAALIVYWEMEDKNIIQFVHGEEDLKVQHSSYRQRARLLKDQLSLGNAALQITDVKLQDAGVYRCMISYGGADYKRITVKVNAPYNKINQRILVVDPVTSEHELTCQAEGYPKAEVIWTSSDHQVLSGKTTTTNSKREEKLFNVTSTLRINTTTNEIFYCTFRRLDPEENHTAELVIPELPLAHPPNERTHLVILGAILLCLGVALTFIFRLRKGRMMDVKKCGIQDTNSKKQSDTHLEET

Chain of human PD-L1 protein (soluble) (Q9NZQ7 19-238): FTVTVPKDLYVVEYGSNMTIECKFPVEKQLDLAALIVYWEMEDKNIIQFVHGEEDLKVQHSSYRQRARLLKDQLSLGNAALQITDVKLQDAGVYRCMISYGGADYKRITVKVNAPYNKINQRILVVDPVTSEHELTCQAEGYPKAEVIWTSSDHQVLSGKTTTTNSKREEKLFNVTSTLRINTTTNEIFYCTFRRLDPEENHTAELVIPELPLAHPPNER

EC50 [1]: 2.06 nM
EC50 [2]: 0.0575 nM
B1: hu309 (monospecific anti-CD73 antibody with the 309 VH and 309 VL) (antibody, V domains shown)
VH: EVQLQESGPGLVKPSETLSLTCAVSGYSITSGYYWNWIRQPPGKKLEWMGYINYGGSNGYNPSLKSRITISRDTSKNQFSLKLSSVTAADTAVYYCARDYDAYYEALDDWGQGTTVTVSS
VL: EIVLSQSPATLSLSPGERATLSCRASSRVNYMHWYQQKPGQSPRPWISATSNLASGVPARFSGSGSGTSYTLTISSLEPEDFAVYYCQQWSSNPPTFGGGTKVEIK

EC50 [1]: 2.24 nM
EC50 [3]: 0.179 nM
EC50 [4]: 0.255 nM
EC50 [2]: 0.0715 nM
B2: anti-CD73/PD-L1 bispecific antibody 309-H12 (structure A of FIG. 1) (bispecific antibody)
heavy: not shown
light: EIVLSQSPATLSLSPGERATLSCRASSRVNYMHWYQQKPGQSPRPWISATSNLASGVPARFSGSGSGTSYTLTISSLEPEDFAVYYCQQWSSNPPTFGGGTKVEIKRTVAAPSVFIFPPSDEQLKSGTASVVCLLNNFYPREAKVQWKVDNALQSGNSQESVTEQDSKDSTYSLSSTLTLSKADYEKHKVYACEVTHQGLSSPVTKSFNRGEC

EC50 [3]: 0.00948 nM
EC50 [4]: 0.0237 nM
B3: H12(PDL1) (monospecific anti-PD-L1 antibody with the H12 VH and H12 VL) (antibody, V domains shown)
VH: EVQLVESGGGLVQPGGSLRLSCAASGFTFSSYDMSWVRQAPGKSLEWVATISDAGGYIYYRDSVKGRFTISRDNAKNSLYLQMNSLRDEDTAVYICARELPWRYALDYWGQGTTVTVSS
VL: DIQMTQSPSSLSASVGDRVTITCKASQDVTPAVAWYQQKPGKAPKLLIYSTSSRYTGVPSRFSGSGSGTDFTFTISSLQPEDIATYYCQQHYTTPLTFGQGTKLEIK
